Source: patent US20210077638A1

Columns and labels:
hMET.mmh (human) = hMET.mmh (human) (UniProt P08581); test: SPR Biacore T-200, antibody captured by anti-human Fc, 90 nM hMET.mmh, 25 C (second run)
[1] = biological target: human MET on EBC-1, NCI-H441 and NCI-H358 cells (human) (UniProt P08581); test: cell binding assay on EBC-1 cells, n=1, gamma counting

Antigen Bound (hMET.mmh (human)) | IR (%) (immunoreactivity, percent of activity bound to cells) [1] | Substance
-1.46 RU/nm | – | Non-binding isotype Control (antibody)
– | 2.8% | non-specific DFO-Ab radioimmunoconjugate (antibody)
